Holding throughout (assay): SPR
(In general: SPR reads the build-up and loss of mass on a sensor chip optically.)

For assay [1], the target named is XRCC1 cancer-associated variant R194W (human, UniProt P18887 1-633, R194W).
In assay [2] the target is XRCC1 cancer-associated variant Y576S (human, UniProt P18887 1-633, Y576S).
Assay [3] has as its target XRCC1 cancer-associated variant P161L (human, UniProt P18887 1-633, P161L).
Assay [4] addresses XRCC1 cancer-associated variant R280H (human, UniProt P18887 1-633, R280H).
Assay [5] addresses XRCC1 cerebellar ataxia-related K431N mutant (human, UniProt P18887 1-633, K431N).

B1: Aprataxin (APTX), human wild-type full-length (enzyme)
chain: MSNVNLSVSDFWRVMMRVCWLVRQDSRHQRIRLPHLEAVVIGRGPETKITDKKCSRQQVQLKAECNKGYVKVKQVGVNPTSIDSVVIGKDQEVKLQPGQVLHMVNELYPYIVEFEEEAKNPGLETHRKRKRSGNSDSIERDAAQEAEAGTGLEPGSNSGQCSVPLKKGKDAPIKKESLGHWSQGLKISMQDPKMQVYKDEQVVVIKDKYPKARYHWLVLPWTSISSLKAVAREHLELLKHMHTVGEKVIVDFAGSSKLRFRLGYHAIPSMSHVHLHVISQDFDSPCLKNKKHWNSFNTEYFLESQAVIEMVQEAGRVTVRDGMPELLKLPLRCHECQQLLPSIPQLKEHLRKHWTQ
As usually defined, the Kd is the equilibrium constant for the complex coming apart. The low end stands for a tighter complex, the high end for a looser complex. As to B1, the Kd was 686 nM in assay [1]; 422 nM in assay [2]; 320 nM in assay [3]; 569 nM in assay [4]; 301 nM in assay [5].

B2: DNA ligase IIIα, human wild-type full-length (1–922 aa) (enzyme)
chain: MAEQRFCVDYAKRGTAGCKKCKEKIVKGVCRIGKVVPNPFSESGGDMKEWYHIKCMFEKLERARATTKKIEDLTELEGWEELEDNEKEQITQHIADLSSKAAGTPKKKAVVQAKLTTTGQVTSPVKGASFVTSTNPRKFSGFSAKPNNSGEAPSSPTPKRSLSSSKCDPRHKDCLLREFRKLCAMVADNPSYNTKTQIIQDFLRKGSAGDGFHGDVYLTVKLLLPGVIKTVYNLNDKQIVKLFSRIFNCNPDDMARDLEQGDVSETIRVFFEQSKSFPPAAKSLLTIQEVDEFLLRLSKLTKEDEQQQALQDIASRCTANDLKCIIRLIKHDLKMNSGAKHVLDALDPNAYEAFKASRNLQDVVERVLHNAQEVEKEPGQRRALSVQASLMTPVQPMLAEACKSVEYAMKKCPNGMFSEIKYDGERVQVHKNGDHFSYFSRSLKPVLPHKVAHFKDYIPQAFPGGHSMILDSEVLLIDNKTGKPLPFGTLGVHKKAAFQDANVCLFVFDCIYFNDVSLMDRPLCERRKFLHDNMVEIPNRIMFSEMKRVTKALDLADMITRVIQEGLEGLVLKDVKGTYEPGKRHWLKVKKDYLNEGAMADTADLVVLGAFYGQGSKGGMMSIFLMGCYDPGSQKWCTVTKCAGGHDDATLARLQNELDMVKISKDPSKIPSWLKVNKIYYPDFIVPDPKKAAVWEITGAEFSKSEAHTADGISIRFPRCTRIRDDKDWKSATNLPQLKELYQLSKEKADFTVVAGDEGSSTTGGSSEENKGPSGSAVSRKAPSKPSASTKKAEGKLSNSNSKDGNMQTAKPSAMKVGEKLATKSSPVKVGEKRKAADETLCQTKVLLDIFTGVRLYLPPSTPDFSRLRRYFVAFDGDLVQEFDMTSATHVLGSRDKNPAAQQVSPEWIWACIRKRRLVAPC
For B2, the Kd in assay [1] is 44.9 nM; in assay [2] it was 50.4 nM; in assay [3], 37.3 nM; in assay [4], 43.6 nM.

Values taken from PMC8405949 (2021).
